{
  "source": "patent US20220305136A1",
  "about": "(ASCENDIS PHARMA ONCOLOGY DIVISION A S, published 2022)",
  "binders": {"B1": {"name": "HHC^MET (VHH)", "chain": "EVQLVESGGGLVQAGGSLRLSCAASGGTFSFYGMGWFRQAPGKEQEFVADIRTSAGRTYYADSVKGRFTISRDNAKNTVYLQMNSLKPEDTAVYYCAAEMSGISGWDYWGQGTQVTVSSGGGGSGGGSEVQLVESGGGLVQAGGSLRLSCAASGGTFSFYGMGWFRQAPGKEQEFVADIRTSAGRTYYADSVKGRFTISRDNAKNTVYLQMNSLKPEDTAVYYCAAEMSGISGWDYWGQGTQVTVSS", "notes": "Custom made, expressed in E. coli; The assay measured free HHC^MET in rat plasma, either spiked in as standard or released from the hydrogel prodrug; also called HHC^MET-NH2"}},
  "target": "T1, human CTLA-4 (AA Ala37-Ser160)-Fc Tag fusion protein (human, UniProt P16410 37-160)",
  "T1 construct": "range 37-160; Bought reagent, coated on ELISA wells as the capture protein; also called AcroBiosystem catalog no; CT4-H5255; not shown: Fc Tag of the bought fusion protein",
  "T1 sequence (looked up)": "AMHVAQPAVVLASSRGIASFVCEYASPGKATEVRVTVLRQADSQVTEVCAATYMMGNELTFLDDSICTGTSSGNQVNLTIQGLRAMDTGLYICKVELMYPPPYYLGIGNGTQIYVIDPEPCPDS",
  "assay": "in-house sandwich ELISA; CTLA-4-Fc coated on plate captures HHC^MET from rat plasma; read-out with rabbit anti-camelid VHH antibody-HRP",
  "description": "These solutions were used for the generation of a calibration curve.",
  "data": [
    {"binder": "B1", "values": [
      {"measurement": "binding result", "result": "binds"}
    ]}
  ]
}
